Reference: article PMC8282340

Columns and labels:
[1] = biological target: fluorescent NOXA peptide (human); experiment: FP; conditions: natural protein
[2] = biological target: fluorescent BID peptide (human); experiment: FP; conditions: natural protein
[3] = biological target: NOXA peptide fused to the C-terminal half of T7 RNAP; experiment: luciferase assay; conditions: parent: est. 1.0; read off a plot

Sequence of human MCL-1 fused to the N-terminal half of T7 RNAP (Q07820 whole entry, the tested form may be a part): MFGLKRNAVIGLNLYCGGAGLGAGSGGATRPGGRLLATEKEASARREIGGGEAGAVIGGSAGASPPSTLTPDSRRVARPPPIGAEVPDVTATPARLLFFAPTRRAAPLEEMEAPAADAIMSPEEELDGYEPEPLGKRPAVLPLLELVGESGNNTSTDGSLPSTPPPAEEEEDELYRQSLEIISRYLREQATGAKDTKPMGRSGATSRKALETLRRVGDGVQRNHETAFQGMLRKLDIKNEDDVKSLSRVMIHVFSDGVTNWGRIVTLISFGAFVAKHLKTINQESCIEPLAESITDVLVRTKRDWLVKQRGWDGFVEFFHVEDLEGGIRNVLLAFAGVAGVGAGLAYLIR
Sequence of fluorescent BID peptide (human) (P55957 79-99): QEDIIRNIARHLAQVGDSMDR
Sequence of fluorescent NOXA peptide (human) (Q13794 19-43): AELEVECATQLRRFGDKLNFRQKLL

Row | Substance | Kd [1] [nM] | Kd [2] [nM] | ratio to parent [3]
1 | human MCL-1 fused to the N-terminal half of T7 RNAP | 9.79 | 14.7 | –
2 | human MCL-1 fused to the N-terminal half of T7 RNAP a167T; g202S | – | – | 1.1
3 | human MCL-1 fused to the N-terminal half of T7 RNAP g202N; d263A | – | – | 0.84
4 | human MCL-1 fused to the N-terminal half of T7 RNAP n200S; f258V | – | – | 3.8
5 | human MCL-1 fused to the N-terminal half of T7 RNAP v189G | – | – | 3.8
